Measured values: patent US20230151079

System: Recombinant protein (SEQ ID NO: 1), modified from sculptin of the tick Amblyomma cajennense

## factor Xa
  hydrolysis of recombinant protein by serine protease (SDS-PAGE, 6 h): factor Xa also converted the recombinant protein in fragments

## plasmin
  hydrolysis of recombinant protein by serine protease (SDS-PAGE, 6 h): strip of 20-kDa completely disappeared in recombinant protein incubated by plasm in and trypsin

## thrombin
  hydrolysis of recombinant protein by serine protease (SDS-PAGE, 6 h): strip intensity of 20-kDa (corresponding to non-digested recombinant protein) decreased and strips of lower molecular weight appeared in recombinant protein incubated by thrombin

## trypsin
  hydrolysis of recombinant protein by serine protease (SDS-PAGE, 6 h): strip of 20-kDa completely disappeared in recombinant protein incubated by plasm in and trypsin
